The supplement of paper PMC5998384

What was measured:
HeLa Kyoto [1] = test: solubility change mitosis vs G1/S (difference of NP-40 vs SDS log2 ratios) (log2 ratio difference); higher = more soluble in mitosis
HeLa Kyoto [2] = test: solubility in G1/S (NP-40 vs SDS abundance) (log2 ratio); higher = more soluble; conditions: cell cycle stage: G1/S
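For solubility change mitosis vs G1/S (difference of NP-40 vs SDS log2 ratios) in this document: synchronized HeLa Kyoto cells (double thymidine block for G1/S, nocodazole release for mitosis), protein amounts in NP-40 versus SDS lysates quantified by mass spectrometry, three biological replicates.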
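For solubility in G1/S (NP-40 vs SDS abundance) in this document: HeLa Kyoto cells arrested at G1/S by double thymidine block, proteins quantified by TMT10plex mass spectrometry in mild NP-40 versus SDS extracts, three biological replicates.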

Chain of MAFK (chain, as listed by the source): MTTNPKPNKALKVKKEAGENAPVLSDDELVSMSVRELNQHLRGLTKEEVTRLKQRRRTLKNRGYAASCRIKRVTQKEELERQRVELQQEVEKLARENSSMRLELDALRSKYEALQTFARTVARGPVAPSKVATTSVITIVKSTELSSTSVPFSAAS

Row | Substance | solubility change mitosis (log2) (HeLa Kyoto [1]) | solubility in G1/S (log2) (HeLa Kyoto [2])
1 | MFHSPRRLCSALLQRDAPGLRRLPAPGLRRPLSPPAAVPRPASPRLLAAASAASGAARSCSRTVCSMGTGTSRLYSALAKTLNSSAASQHPEYLVSPDPEHLEPIDPKELLEECRAVLHTRPPRFQRDFVDLRTDCPSTHPPIRVMQWNILAQALGEGKDNFVQCPVEALKWEERKCLILEEILAYQPDILCLQEVDHYFDTFQPLLSRLGYQGTFFPKPWSPCLDVEHNNGPDGCALFFLQNRFKLVNSANIRLTAMTLKTNQVAIAQTLECKESGRQFCIAVTHLKARTGWERFRSAQGCDLLQNLQNITQGAKIPLIVCGDFNAEPTEEVYKHFASSSLNLNSAYKLLSADGQSEPPYTTWKIRTSGECRHTLDYIWYSKHALNVRSALDLLTEEQIGPNRLPSFNYPSDHLSLVCDFSFTEESDGLS [NOCT] | -0.0975 | 0.0632
2 | MSGSDGGLEEEPELSITLTLRMLMHGKEVGSIIGKKGETVKRIREQSSARITISEGSCPERITTITGSTAAVFHAVSMIAFKLDEDLCAAPANGGNVSRPPVTLRLVIPASQCGSLIGKAGTKIKEIRETTGAQVQVAGDLLPNSTERAVTVSGVPDAIILCVRQICAVILESPPKGATIPYHPSLSLGTVLLSANQGFSVQGQYGAVTPAEVTKLQQLSSHAVPFATPSVVPGLDPGTQTSSQEFLVPNDLIGCVIGRQGSKISEIRQMSGAHIKIGNQAEGAGERHVTITGSPVSIALAQYLITACLETAKSTSGGTPSSAPADLPAPFSPPLTALPTAPPGLLGTPYAISLSNFIGLKPMPFLALPPASPGPPPGLAAYTAKMAAANGSKKAERQKFSPY [PCBP4] | 0.0329 | 0.0231
3 | MSWIPFKIGQPKKQIVPKTVERDFEREYGKLQQLEEQTRRLQKDMKKSTDADLAMSKSAVKISLDLLSNPLCEQDQDLLNMVTALDTAMKRMDAFNQEKVNQIQKTVIEPLKKFGSVFPSLNMAVKRREQALQDYRRLQAKVEKYEEKEKTGPVLAKLHQAREELRPVREDFEAKNRQLLEEMPRFYGSRLDYFQPSFESLIRAQVVYYSEMHKIFGDLSHQLDQPGHSDEQRERENEAKLSELRALSIVADD [BIN3] | 0.0471 | 0.418
4 | MAGNFWQSSHYLQWILDKQDLLKERQKDLKFLSEEEYWKLQIFFTNVIQALGEHLKLRQQVIATATVYFKRFYARYSLKSIDPVLMAPTCVFLASKVEEFGVVSNTRLIAAATSVLKTRFSYAFPKEFPYRMNHILECEFYLLELMDCCLIVYHPYRPLLQYVQDMGQEDMLLPLAWRIVNDTYRTDLCLLYPPFMIALACLHVACVVQQKDARQWFAELSVDMEKILEIIRVILKLYEQWKNFDERKEMATILSKMPKPKPPPNSEGEQGPNGSQNSSYSQS [CCNC] | -0.0468 | -0.272
5 | MASNFKKANMASSSQRKRMSPKPELTEEQKQEIREAFDLFDADGTGTIDVKELKVAMRALGFEPKKEEIKKMISEIDKEGTGKMNFGDFLTVMTQKMSEKDTKEEILKAFKLFDDDETGKISFKNLKRVAKELGENLTDEELQEMIDEADRDGDGEVSEQEFLRIMKKTSLY [CETN2] | 0.68 | 0.117
6 | MGVDFDVKTFCHNLRATKPPYECPVETCRKVYKSYSGIEYHLYHYDHDNPPPPQQTPLRKHKKKGRQSRPANKQSPSPSEVSQSPGREVMSYAQAQRMVEVDLHGRVHRISIFDNLDVVSEDEEAPEEAPENGSNKENTETPAATPKSGKHKNKEKRKDSNHHHHHNVSASTTPKLPEVVYRELEQDTPDAPPRPTSYYRYIEKSAEELDEEVEYDMDEEDYIWLDIMNERRKTEGVSPIPQEIFEYLMDRLEKESYFESHNKGDPNALVDEDAVCCICNDGECQNSNVILFCDMCNLAVHQECYGVPYIPEGQWLCRRCLQSPSRAVDCALCPNKGGAFKQTDDGRWAHVVCALWIPEVCFANTVFLEPIDSIEHIPPARWKLTCYICKQRGSGACIQCHKANCYTAFHVTCAQQAGLYMKMEPVRETGANGTSFSVRKTAYCDIHTPPGSARRLPALSHSEGEEDEDEEEDEGKGWSSEKVKKAKAKSRIKMKKARKILAEKRAAAPVVSVPCIPPHRLSKITNRLTIQRKSQFMQRLHSYWTLKRQSRNGVPLLRRLQTHLQSQRNCDQVGRDSEDKNWALKEQLKSWQRLRHDLERARLLVELIRKREKLKRETIKVQQIAMEMQLTPFLILLRKTLEQLQEKDTGNIFSEPVPLSEVPDYLDHIKKPMDFFTMKQNLEAYRYLNFDDFEEDFNLIVSNCLKYNAKDTIFYRAAVRLREQGGAVLRQARRQAEKMGIDFETGMHIPHSLAGDEATHHTEDAAEEERLVLLENQKHLPVEEQLKLLLERLDEVNASKQSVGRSRRAKMIKKEMTALRRKLAHQRETGRDGPERHGPSSRGSLTPHPAACDKDGQTDSAAEESSSQETSKGLGPNMSSTPAHEVGRRTSVLFSKKNPKTAGPPKRPGRPPKNRESQMTPSHGGSPVGPPQLPIMSSLRQRKRGRSPRPSSSSDSDSDKSTEDPPMDLPANGFSGGNQPVKKSFLVYRNDCSLPRSSSDSESSSSSSSSAASDRTSTTPSKQGRGKPSFSRGTFPEDSSEDTSGTENEAYSVGTGRGVGHSMVRKSLGRGAGWLSEDEDSPLDALDLVWAKCRGYPSYPALIIDPKMPREGMFHHGVPIPVPPLEVLKLGEQMTQEAREHLYLVLFFDNKRTWQWLPRTKLVPLGVNQDLDKEKMLEGRKSNIRKSVQIAYHRALQHRSKVQGEQSSETSDSD [BRPF1] | 0.44 | -1.3
7 | MQGSTRRMGVMTDVHRRFLQLLMTHGVLEEWDVKRLQTHCYKVHDRNATVDKLEDFINNINSVLESLYIEIKRGVTEDDGRPIYALVNLATTSISKMATDFAENELDLFRKALELIIDSETGFASSTNILNLVDQLKGKKMRKKEAEQVLQKFVQNKWLIEKEGEFTLHGRAILEMEQYIRETYPDAVKICNICHSLLIQGQSCETCGIRMHLPCVAKYFQSNAEPRCPHCNDYWPHEIPKVFDPEKERESGVLKSNKKSLRSRQH [NSMCE1] | -0.0633 | 0.0262
8 | MAFK | 0.364 | 0.335
9 | MAAENSKQFWKRSAKLPGSIQPVYGAQHPPLDPRLTKNFIKERSKVNTVPLKNKKASSFHEFARNTSDAWDIGDDEEEDFSSPSFQTLNSKVALATAAQVLENHSKLRVKPERSQSTTSDVPANYKVIKSSSDAQLSRNSSDTCLRNPLHKQQSLPLRPIIPLVARISDQNASGAPPMTVREKTRLEKFRQLLSSQNTDLDELRKCSWPGVPREVRPITWRLLSGYLPANTERRKLTLQRKREEYFGFIEQYYDSRNEEHHQDTYRQIHIDIPRTNPLIPLFQQPLVQEIFERILFIWAIRHPASGYVQGINDLVTPFFVVFLSEYVEEDVENFDVTNLSQDMLRSIEADSFWCMSKLLDGIQDNYTFAQPGIQKKVKALEELVSRIDEQVHNHFRRYEVEYLQFAFRWMNNLLMRELPLRCTIRLWDTYQSEPEGFSHFHLYVCAAFLIKWRKEILDEEDFQGLLMLLQNLPTIHWGNEEIGLLLAEAYRLKYMFADAPNHYRR [TBC1D22B] | -0.0568 | -0.183
10 | MSFRGGGRGGFNRGGGGGGFNRGGSSNHFRGGGGGGGGGNFRGGGRGGFGRGGGRGGFNKGQDQGPPERVVLLGEFLHPCEDDIVCKCTTDENKVPYFNAPVYLENKEQIGKVDEIFGQLRDFYFSVKLSENMKASSFKKLQKFYIDPYKLLPLQRFLPRPPGEKGPPRGGGRGGRGGGRGGGGRGGGRGGGFRGGRGGGGGGFRGGRGGGFRGRGH [GAR1] | 1.41 | -1.36
11 | MED13L | -0.119 | 0.0923
12 | MNQPQRMAPVGTDKELSDLLDFSMMFPLPVTNGKGRPASLAGAQFGGSGLEDRPSSGSWGSGDQSSSSFDPSRTFSEGTHFTESHSSLSSSTFLGPGLGGKSGERGAYASFGRDAGVGGLTQAGFLSGELALNSPGPLSPSGMKGTSQYYPSYSGSSRRRAADGSLDTQPKKVRKVPPGLPSSVYPPSSGEDYGRDATAYPSAKTPSSTYPAPFYVADGSLHPSAELWSPPGQAGFGPMLGGGSSPLPLPPGSGPVGSSGSSSTFGGLHQHERMGYQLHGAEVNGGLPSASSFSSAPGATYGGVSSHTPPVSGADSLLGSRGTTAGSSGDALGKALASIYSPDHSSNNFSSSPSTPVGSPQGLAGTSQWPRAGAPGALSPSYDGGLHGLQSKIEDHLDEAIHVLRSHAVGTAGDMHTLLPGHGALASGFTGPMSLGGRHAGLVGGSHPEDGLAGSTSLMHNHAALPSQPGTLPDLSRPPDSYSGLGRAGATAAASEIKREEKEDEENTSAADHSEEEKKELKAPRARTSPDEDEDDLLPPEQKAEREKERRVANNARERLRVRDINEAFKELGRMCQLHLNSEKPQTKLLILHQAVSVILNLEQQVRERNLNPKAACLKRREEEKVSGVVGDPQMVLSAPHPGLSEAHNPAGHM [TCF3] | -0.0342 | 0.291
13 | MADSSGRGAGKPATGPTNSSSAKKKDKRVQGGRVIESRYLQYEKKTTQKAPAGDGSQTRGKMSEGGRKSSLLQKSKADSSGVGKGDLQSTLLEGHGTAPPDLDLSAINDKSIVKKTPQLAKTISKKPESTSFSAPRKKSPDLSEAMEMMESQTLLLTLLSVKMENNLAEFERRAEKNLLIMCKEKEKLQKKAHELKRRLLLSQRKRELADVLDAQIEMLSPFEAVATRFKEQYRTFATALDTTRHELPVRSIHLEGDGQQLLDALQHELVTTQRLLGELDVGDSEENVQVLDLLSELKDVTAKKDLELRRSFAQVLELSAEASKEAALANQEVWEETQGMAPPSRWYFNQDSACRESGGAPKNTPLSEDDNPGASSAPAQATFISPSEDFSSSSQAEVPPSLSRSGRDLS [HAUS8] | 0.189 | 0.514
14 | MSRQTATALPTGTSKCPPSQRVPALTGTTASNNDLASLFECPVCFDYVLPPILQCQSGHLVCSNCRPKLTCCPTCRGPLGSIRNLAMEKVANSVLFPCKYASSGCEITLPHTEKADHEELCEFRPYSCPCPGASCKWQGSLDAVMPHLMHQHKSITTLQGEDIVFLATDINLPGAVDWVMMQSCFGFHFMLVLEKQEKYDGHQQFFAIVQLIGTRKQAENFAYRLELNGHRRRLTWEATPRSIHEGIATAIMNSDCLVFDTSIAQLFAENGNLGINVTISMC [SIAH1] | -0.11 | 0.247
15 | MVDHLANTEINSQRIAAVESCFGASGQPLALPGRVLLGEGVLTKECRKKAKPRIFFLFNDILVYGSIVLNKRKYRSQHIIPLEEVTLELLPETLQAKNRWMIKTAKKSFVVSAASATERQEWISHIEECVRRQLRATGRPPSTEHAAPWIPDKATDICMRCTQTRFSALTRRHHCRKCGFVVCAECSRQRFLLPRLSPKPVRVCSLCYRELAAQQRQEEAEEQGAGSPGQPAHLARPICGASSGDDDDSDEDKEGSRDGDWPSSVEFYASGVAWSAFHS [PLEKHF1] | 0.00206 | 0.0679
16 | MVARVWSLMRFLIKGSVAGGAVYLVYDQELLGPSDKSQAALQKAGEVVPPAMYQFSQYVCQQTGLQIPQLPAPPKIYFPIRDSWNAGIMTVMSALSVAPSKAREYSKEGWEYVKARTK [MIC13] | 0.449 | 0.091
